This series concerns the molecule itself. Nature of the series: not stated; PAXX 1-145 in solution (Supplementary Fig. 2).

B1: PAXX N-terminal fragment (1–145) (domain or fragment, human, UniProt Q9BUH6 1-145, looked up)
chain: MDPLSPPLCTLPPGPEPPRFVCYCEGEESGEGDRGGFNLYVTDAAELWSTCFTPDSLAALKARFGLSAAEDITPRFRAACEQQAVALTLQEDRASLTLSGGPSALAFDLSKVPGPEAAPRLRALTLGLAKRVWSLERRLAAAEET
notes: A SeMet-labelled double mutant L57M/L105M of the same limits was used for phasing only; source: E. coli (pETDuet-1), purified (nickel beads, HiTrap Q, Superdex 200 gel filtration)
In general, stoichiometry N refers to a count of units in the complex or per binding partner. Consider B1, for which the “stoichiometry N” value worked out at 2.

For the origin of these results see article PMC4339890 (Nature Communications, 2015).
